Measured values taken from article PMC4729865 (Nature Communications, 2016).
Each block holds one binder with its values, some of them ahead of it.

B1: Flag-Cep57 (natural protein, human, UniProt Q86XR8 1-500, looked up)
chain: MAAASVSAASGSHLSNSFAEPSRSNGSMVRHSSSPYVVYPSDKPFLNSDLRRSPSKPTLAYPESNSRAIFSALKNLQDKIRRLELERIQAEESVKTLSRETIEYKKVLDEQIQERENSKNEESKHNQELTSQLLAAENKCNLLEKQLEYMRNMIKHAEMERTSVLEKQVSLERERQHDQTHVQSQLEKLDLLEQEYNKLTTMQALAEKKMQELEAKLHEEEQERKRMQAKAAELQTGLETNRLIFEDKATPCVPNARRIKKKKSKPPEKKSSRNYFGAQPHYRLCLGDMPFVAGKSTSPSHAVVANVQLVLHLMKQHSKALCNDRVINSIPLAKQVSSRGGKSKKLSVTPPSSNGINEELSEVLQTLQDEFGQMSFDHQQLAKLIQESPTVELKDKLECELEALVGRMEAKANQITKVRKYQAQLEKQKLEKQKKELKATKKTLDEERNSSSRSGITGTTNKKDFMKLRPGEKRRKNLQLLKDMQSIQNSLQSSSLCWDY
notes: Cep57 (translokin), human; cDNA amplified from a HeLa cell cDNA library; also called purified Cep57 from HEK293T cells; source: HEK293T, purified (anti-Flag beads, 600 mM NaCl wash, eluted by 3 x Flag peptides); not shown: Flag, N-terminal, kept

Columns and labels:
Details in all cases: both partners purified
Mad1-GFP = molecular target: T1, Mad1-GFP (human, UniProt Q9Y6D9 1-718); assay: co-IP; purified proteins incubated together, immunoprecipitated with anti-Flag or anti-GFP antibody, western blotting
T1 construct: Mad1, human; cDNA amplified from a HeLa cell cDNA library; not shown: GFP, C-terminal, kept
T1 sequence (looked up): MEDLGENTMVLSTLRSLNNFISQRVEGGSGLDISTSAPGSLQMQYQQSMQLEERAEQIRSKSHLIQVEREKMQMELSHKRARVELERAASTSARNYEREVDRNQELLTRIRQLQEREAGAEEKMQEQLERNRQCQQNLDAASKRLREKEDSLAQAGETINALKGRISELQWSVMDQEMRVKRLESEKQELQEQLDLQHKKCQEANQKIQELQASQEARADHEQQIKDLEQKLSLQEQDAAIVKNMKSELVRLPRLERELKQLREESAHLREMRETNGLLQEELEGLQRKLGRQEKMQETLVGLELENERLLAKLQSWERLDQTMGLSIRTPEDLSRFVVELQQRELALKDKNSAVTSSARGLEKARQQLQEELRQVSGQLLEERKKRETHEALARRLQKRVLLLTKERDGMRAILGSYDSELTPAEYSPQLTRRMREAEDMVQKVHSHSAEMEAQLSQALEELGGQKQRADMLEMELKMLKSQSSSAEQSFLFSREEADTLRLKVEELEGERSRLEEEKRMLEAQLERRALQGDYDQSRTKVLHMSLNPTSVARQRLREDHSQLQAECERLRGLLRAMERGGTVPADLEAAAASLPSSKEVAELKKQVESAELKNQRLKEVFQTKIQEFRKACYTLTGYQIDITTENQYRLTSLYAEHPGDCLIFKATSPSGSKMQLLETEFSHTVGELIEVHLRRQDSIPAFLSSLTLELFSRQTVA

Flag-Mad1 = molecular target: T2, Flag-Mad1 (human, UniProt Q9Y6D9 1-718); assay: as above
T2 construct: Mad1, human; cDNA amplified from a HeLa cell cDNA library; also called Flag-Mad1 (FL); source: HEK293T, purified (anti-Flag beads, 600 mM NaCl wash, eluted by 3 x Flag peptides); not shown: Flag, N-terminal, kept
T2 sequence (looked up): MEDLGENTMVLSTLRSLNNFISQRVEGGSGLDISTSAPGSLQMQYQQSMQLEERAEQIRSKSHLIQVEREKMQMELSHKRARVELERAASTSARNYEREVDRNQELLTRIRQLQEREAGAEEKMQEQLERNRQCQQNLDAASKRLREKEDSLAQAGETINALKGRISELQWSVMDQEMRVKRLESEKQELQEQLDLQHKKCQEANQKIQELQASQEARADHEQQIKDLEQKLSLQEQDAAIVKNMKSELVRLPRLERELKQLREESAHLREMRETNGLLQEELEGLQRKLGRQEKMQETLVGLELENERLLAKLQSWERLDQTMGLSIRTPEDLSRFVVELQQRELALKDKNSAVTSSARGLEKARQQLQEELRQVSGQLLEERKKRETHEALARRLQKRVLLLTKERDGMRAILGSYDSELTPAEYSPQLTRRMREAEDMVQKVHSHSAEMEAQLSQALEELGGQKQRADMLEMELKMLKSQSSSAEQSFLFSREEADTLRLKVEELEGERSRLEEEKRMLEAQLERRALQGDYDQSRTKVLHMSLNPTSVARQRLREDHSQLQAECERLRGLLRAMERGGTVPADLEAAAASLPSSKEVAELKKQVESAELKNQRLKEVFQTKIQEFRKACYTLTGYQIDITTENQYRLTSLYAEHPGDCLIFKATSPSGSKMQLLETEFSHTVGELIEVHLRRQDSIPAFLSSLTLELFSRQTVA

[1] = molecular target: T3, GST-Mad1 (176–718 amino acids) (human, UniProt Q9Y6D9 176-718); assay: pull-down; about 0.2 μg MBP-Cep57 fragment coupled to Amylose Magnetic beads incubated with about 0.2 μg purified, eluted GST-tagged protein; washed five times with lysis buffer; western blotting with anti-GST
T3 construct: source: E. coli BL21, purified (Glutathione Sepharose 4B, eluted by glutathione); not shown: GST, N-terminal, kept
T3 sequence (looked up): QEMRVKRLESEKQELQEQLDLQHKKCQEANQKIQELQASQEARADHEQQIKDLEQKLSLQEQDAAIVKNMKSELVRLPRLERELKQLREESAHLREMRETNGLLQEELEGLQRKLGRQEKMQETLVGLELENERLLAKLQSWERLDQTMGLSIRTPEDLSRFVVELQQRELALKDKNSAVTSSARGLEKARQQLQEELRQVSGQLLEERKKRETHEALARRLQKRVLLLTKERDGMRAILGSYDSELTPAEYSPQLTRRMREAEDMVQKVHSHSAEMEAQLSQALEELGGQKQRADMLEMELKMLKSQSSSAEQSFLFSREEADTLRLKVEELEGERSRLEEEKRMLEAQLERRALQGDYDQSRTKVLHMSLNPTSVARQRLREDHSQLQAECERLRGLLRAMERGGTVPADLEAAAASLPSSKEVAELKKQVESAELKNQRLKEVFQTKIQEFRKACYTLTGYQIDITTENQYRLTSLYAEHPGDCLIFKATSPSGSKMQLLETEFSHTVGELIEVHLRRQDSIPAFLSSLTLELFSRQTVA

[2] = molecular target: T4, MBP-Cep57 (1–242 amino acids) (human, UniProt Q86XR8 1-242); assay: as above
T4 construct: also called MBP-Cep57N; source: E. coli BL21, purified (Amylose Magnetic beads); not shown: MBP, N-terminal, kept
T4 sequence (looked up): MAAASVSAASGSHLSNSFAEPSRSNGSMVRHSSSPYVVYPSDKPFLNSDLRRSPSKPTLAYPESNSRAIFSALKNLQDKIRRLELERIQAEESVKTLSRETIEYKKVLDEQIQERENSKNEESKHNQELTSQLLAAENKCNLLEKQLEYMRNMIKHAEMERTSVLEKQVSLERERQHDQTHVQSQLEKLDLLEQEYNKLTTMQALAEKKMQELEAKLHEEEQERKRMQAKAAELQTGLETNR

Flag-Cep57 = molecular target: B1; assay: co-IP; purified proteins incubated together, immunoprecipitated with anti-Flag or anti-GFP antibody, western blotting

Binder: B1
- binding result (Mad1-GFP): binds

B2: GST-Cep57 (195–500 amino acids) (domain or fragment, human, UniProt Q86XR8 195-500, looked up)
chain: EYNKLTTMQALAEKKMQELEAKLHEEEQERKRMQAKAAELQTGLETNRLIFEDKATPCVPNARRIKKKKSKPPEKKSSRNYFGAQPHYRLCLGDMPFVAGKSTSPSHAVVANVQLVLHLMKQHSKALCNDRVINSIPLAKQVSSRGGKSKKLSVTPPSSNGINEELSEVLQTLQDEFGQMSFDHQQLAKLIQESPTVELKDKLECELEALVGRMEAKANQITKVRKYQAQLEKQKLEKQKKELKATKKTLDEERNSSSRSGITGTTNKKDFMKLRPGEKRRKNLQLLKDMQSIQNSLQSSSLCWDY
notes: also called C terminus of Cep57; C-terminal Cep57; source: E. coli, purified (Glutathione Sepharose 4B); not shown: GST, N-terminal, kept
- binding result (Flag-Mad1): binds

The next lines start with the values.

- binding result [1]: binds
B3: MBP-Cep57 (151–500 amino acids) (domain or fragment, human, UniProt Q86XR8 151-500, looked up)
chain: RNMIKHAEMERTSVLEKQVSLERERQHDQTHVQSQLEKLDLLEQEYNKLTTMQALAEKKMQELEAKLHEEEQERKRMQAKAAELQTGLETNRLIFEDKATPCVPNARRIKKKKSKPPEKKSSRNYFGAQPHYRLCLGDMPFVAGKSTSPSHAVVANVQLVLHLMKQHSKALCNDRVINSIPLAKQVSSRGGKSKKLSVTPPSSNGINEELSEVLQTLQDEFGQMSFDHQQLAKLIQESPTVELKDKLECELEALVGRMEAKANQITKVRKYQAQLEKQKLEKQKKELKATKKTLDEERNSSSRSGITGTTNKKDFMKLRPGEKRRKNLQLLKDMQSIQNSLQSSSLCWDY
notes: Cep57, human, residues 151-500; source: E. coli BL21, purified (Amylose Magnetic beads); not shown: MBP, N-terminal, kept

- binding result [2]: binds
- binding result (Flag-Cep57): binds
B4: GST-Mis12 (natural protein, human, UniProt Q9H081 1-205, looked up)
chain: MSVDPMTYEAQFFGFTPQTCMLRIYIAFQDYLFEVMQAVEQVILKKLDGIPDCDISPVQIRKCTEKFLCFMKGHFDNLFSKMEQLFLQLILRIPSNILLPEDKCKETPYSEEDFQHLQKEIEQLQEKYKTELCTKQALLAELEEQKIVQAKLKQTLTFFDELHNVGRDHGTSDFRESLVSLVQNSRKLQNIRDNVEKESKRLKIS
notes: Mis12, human; cDNA amplified from a HeLa cell cDNA library; also called Mis12 from bacteria; WT GST-Mis12; source: E. coli BL21, purified (Glutathione Sepharose 4B, eluted by glutathione); not shown: GST, N-terminal, kept
